Laboratory results reported in article PMC9076861.

Molecular target: human insulin receptor overexpressed on Rat-1 cells (Rat-1/hIR) (human) (UniProt P06213)

- EC50 of IR Y1150 phosphorylation in Rat-1/hIR cells, various concentrations of insulin for 5 min, western blot, four-parameter logistic fit: 86.4 nM
Substance: insulin from bovine pancreas (ligand)
